T1: mCCRL2 (Mus musculus, UniProt O35457)
T1 construct: The coding regions of mCCRL2, huCCRL2, mCRTH2, and huCCR10 were amplified from genomic DNA; expressed in transfected cells
T1 sequence (O35457 1-360): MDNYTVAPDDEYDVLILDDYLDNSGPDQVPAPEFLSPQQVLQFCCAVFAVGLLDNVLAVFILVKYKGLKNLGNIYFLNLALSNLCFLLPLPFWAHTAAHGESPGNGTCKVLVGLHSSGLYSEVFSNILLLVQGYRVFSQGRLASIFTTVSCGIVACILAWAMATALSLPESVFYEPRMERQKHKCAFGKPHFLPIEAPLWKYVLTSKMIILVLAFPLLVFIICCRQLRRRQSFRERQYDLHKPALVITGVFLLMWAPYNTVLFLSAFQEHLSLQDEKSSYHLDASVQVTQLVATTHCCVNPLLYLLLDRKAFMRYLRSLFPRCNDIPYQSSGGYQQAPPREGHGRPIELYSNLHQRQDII

T2: huCCRL2 (Homo sapiens, UniProt O00421)
T2 construct: The coding regions of mCCRL2, huCCRL2, mCRTH2, and huCCR10 were amplified from genomic DNA; expressed in transfected cells
T2 sequence (O00421 1-344): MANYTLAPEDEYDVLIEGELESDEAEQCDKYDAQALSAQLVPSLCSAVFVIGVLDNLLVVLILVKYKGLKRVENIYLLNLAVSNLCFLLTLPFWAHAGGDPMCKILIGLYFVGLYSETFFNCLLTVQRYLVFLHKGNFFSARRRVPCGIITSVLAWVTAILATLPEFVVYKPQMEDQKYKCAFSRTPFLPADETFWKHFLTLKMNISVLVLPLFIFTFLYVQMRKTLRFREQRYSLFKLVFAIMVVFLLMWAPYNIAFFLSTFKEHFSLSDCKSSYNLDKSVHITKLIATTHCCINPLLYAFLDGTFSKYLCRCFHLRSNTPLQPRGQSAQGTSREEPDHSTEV

T3: mouse CCRL2 (chemokine (CC motif) receptor-like 2), untagged (mouse, UniProt O35457 1-360)
T3 construct: whole, on cells; also called mCCRL2; mCCRL2/L1.2
T3 sequence (looked up): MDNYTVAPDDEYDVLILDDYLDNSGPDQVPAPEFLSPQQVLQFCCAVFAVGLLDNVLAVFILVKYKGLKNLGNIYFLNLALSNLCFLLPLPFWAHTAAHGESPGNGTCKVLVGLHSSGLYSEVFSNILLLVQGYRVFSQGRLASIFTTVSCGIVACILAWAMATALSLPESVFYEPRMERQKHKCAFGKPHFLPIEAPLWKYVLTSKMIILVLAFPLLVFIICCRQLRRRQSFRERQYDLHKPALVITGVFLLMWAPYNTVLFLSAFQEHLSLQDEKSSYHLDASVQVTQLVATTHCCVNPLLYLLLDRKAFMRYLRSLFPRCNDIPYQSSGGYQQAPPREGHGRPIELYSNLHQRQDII


Legend:
[1] = test system: mouse peritoneal mast cells; test: intracellular calcium mobilization, freshly isolated peritoneal mast cells; type: cell-based; settings: 1000 nM chemerin, 100 nM ATP
Description: (§1) Chemoattractant-stimulated Ca^2+-mobilization was performed following Alliance for Cell Signaling protocol ID PP00000210. Cells (3×10^6/mL) were loaded with 4 μM Fluo4-AM and 0.16% Pluronic acid F-127 (Molecular Probes) in modified Iscove's medium (Iscove's medium with 1% heat inactivated bovine calf serum and 2 mM L-glutamine, Invitrogen) for 30 minutes at 37° C. The samples were mixed every 10 minutes during loading, washed once, resuspended at up to 2×10^6/mL in the same buffer, and allowed to rest in the dark for 30 minutes at room temperature. Chemoattractant-stimulated change in Ca^2+-sensitive fluorescence of Fluo-4 was measured over real-time with a FACsScan flow cytometer and CellQuest software (BD Biosciences) at room temperature under constant stirring (500 rpm). Fluorescent data were acquired continuously up to 1024 seconds at 1-second intervals. The samples were analyzed for 45 seconds to establish basal state, removed from the nozzle to add the stimuli, and then returned to the nozzle. Mean channel fluorescence over time was analyzed with FlowJo (TreeStar, Ashland, Oreg., USA) software. […] 500 μl of these chemerin-loaded cells were added to mCMKLR1/L1.2 cells loaded with Fluo4-AM, and calcium mobilization was evaluated.

mCCRL2 [2] = target: T1, mCCRL2; test: in vitro transwell chemotaxis, mCCRL2/L1.2 transfectants; type: cell-based; settings: range of doses; CXCL12 and CCL19 act via endogenous CXCR4 and CCR7
Description: (§2) For migration experiments using cell lines, 2.5×10^5 cells/100 μl chemotaxis media (RPMI+10% fetal calf serum) were added to the top wells of 5-um pore transwell inserts (Costar, Corning, N.Y., USA), and test samples in 600 μl media were added to the bottom wells. After incubating the transwell plates for 1.5 hours at 37° C., the bottom wells were harvested and flow cytometry was used to assess migration. For primary cell chemotaxis, 1×10^6 cells/100 μl were added to the top well, and, following a 2 hour incubation at 37° C., polystyrene beads (15.0 μm diameter, Polysciences, Warrington, Pa., USA) were added to each well to facilitate normalization of the cell count. The cells were then stained for c-kit, F4/80, and/or CD11b expression and analyzed by flow cytometry. A ratio was generated and percent input migration was calculated.

huCCRL2 = target: T2, huCCRL2; test: in vitro transwell chemotaxis, huCCRL2-HA/L1.2 transfectants; type: cell-based; settings: range of doses; CXCL12 and CCL19 act via endogenous CXCR4 and CCR7
Description: as §2

mCCRL2 [3] = target: T1, mCCRL2; test: intracellular calcium mobilization, mCCRL2/L1.2 transfectants; type: cell-based; settings: Fluo-4; CXCL12 acts via endogenous CXCR4
Description: as §1

peritoneal macrophages = test: mCCRL2 expression on peritoneal macrophages cultured 24 h with stimuli; settings: 24 h culture with stimulus
Description: Peritoneal lavage cells were obtained by i.p. injection of 10 mL PBS, gentle massage of the peritoneal cavity, and collection of the exudate. For some experiments, 500 μl of peritoneal cells (2×10^6 cells/mL) were incubated for 24 hours with either LPS (1 μg/mL), TNFα (10 ng/mL), IFNγ (100 U/mL), polyI:C (20 μg/mL), CpG (10-100 μg/mL), or TGFβ (5 ng/mL).

[4] = test system: mouse peritoneal mast cells; test: in vitro transwell chemotaxis, peritoneal mast cells; type: cell-based; settings: SSChigh CD11b- c-kit+ cells
Description: as §2

bEND3 cells = test: CCRL2 expression in TNFα-treated bEND3 endothelioma cells; type: cell-based, mouse; settings: 24-hour treatment, 20 ng/ml
Description: FIG. 22. […] Panel A. Robust upregulation of CCRL2 RNA by microarray analysis (Affymetrix®). Panel B. TNFα-treated bEND3 cells acquire CCRL2 surface protein (but not CMKLR1 expression) as determined by mAb staining and flow cytometry. Panel C. […] CCRL2/L1.2 and empty vector pcDNA3/L1.2 transfectants are shown as controls. The mean+/−SD of triplicate wells is shown for an individual experiment. A representative data set of 2 performed with similar results is shown for parts B and C, and n=1 for part A.
2005. J Exp Med 201: 509-515). […] We observed the same TNFα-mediated induction of protein expression by mAb staining […].

[5] = target: mouse CCRL2 (chemokine (CC motif) receptor-like 2), untagged (mouse) (UniProt O35457); test: saturation binding of 125I-chemerin 21-148 to mCCRL2/L1.2 cells, one-site fit; saturation binding, single site
[6] = target: T3, mouse CCRL2 (chemokine (CC motif) …); test: flow cytometry on peritoneal mast cells (F4/80-, c-kit+ gate) of WT and CCRL2 KO mice, 10 nM His8-tagged isoform, anti-His6 PE [panel E]

Row | Molecule | transwell migration (mCCRL2 [2]) | also measured
1 | Nc1ncnc2c1ncn2[C@@H]1O[C@H](COP(=O)(O)OP(=O)(O)OP(=O)(O)O)[C@@H](O)[C@H]1O [ATP, reference compound] |  | intracellular calcium mobilization [1]: responded
2 | CCL5: chemokine purchased from R&D Systems | did not induce migration | 
3 | CCL7: chemokine purchased from R&D Systems | did not induce migration | 
4 | CCL11: known chemoattractant | none stimulated | 
5 | CCL19: chemokine, positive control via CCR7 | migrated | transwell migration (huCCRL2): migrated
6 | CCL28: known chemoattractant | none stimulated | 
7 | CXCL9: known chemoattractant | none stimulated | 
8 | CXCL12: chemokine, positive control via CXCR4 | migrated | intracellular calcium mobilization (mCCRL2 [3]): responded; transwell migration (huCCRL2): migrated
9 | CXCL13: known chemoattractant | none stimulated | 
10 | IFNγ: cytokine purchased from Roche |  | mCCRL2 protein expression on peritoneal macrophages (peritoneal macrophages): upregulated
11 | SCF: stem cell factor, positive control for mast cell chemotaxis [reference compound] |  | transwell migration [4]: migrated
12 | TNFα |  | CCRL2 mRNA (bEND3 cells): highly upregulated; CCRL2 protein expression by mAb staining (bEND3 cells): induction; mCCRL2 protein expression on peritoneal macrophages (peritoneal macrophages): upregulated
13 | poly:IC |  | mCCRL2 protein expression on peritoneal macrophages (peritoneal macrophages): upregulated
14 | CCL25: known chemoattractant (protein, UniProt O15444 24-150, looked up) C-C motif chemokine 25: QGVFEDCCLAYHYPIGWAVLRRAWTYRIQEVSGSCNLPAAIFYLPKRHRKVCGNPKSREVQRAMKLLDARNKVFAKLHHNTQTFQAGPHAVKKLSSGNSKLSSSKFSNPISSSKRNVSLLISANSGL | none stimulated | 
15 | CCL8: chemokine purchased from R&D Systems (protein, UniProt P80075 24-99, looked up) C-C motif chemokine 8: QPDSVSIPITCCFNVINRKIPIQRLESYTRITNIQCPKEAVIFKTKRGKEVCADPKERWVRDSMKHLDQIFQNLKP | did not induce migration | 
16 | radioiodinated human chemerin (residues 21-148) (ligand, UniProt Q99969 21-148, looked up, 125I-labelled (radioiodinated), specific activity 97 Ci/g) ELTEAQRRGLQVALEEFHKHPPVQWAFQETSVESAVDTPFPAGIFVRLEFKLQQTSCRKRDWKKPECKVRPNGRKRKCLACIKLGSEDKVLGRLVHCPIETQVLREAEEHQETQCLRVQRAGEDPHSF |  | Kd [5]: 1.6 nM
17 | CCL22: known chemoattractant (protein, UniProt O00626 25-93, looked up) C-C motif chemokine 22: GPYGANMEDSVCCRDYVRYRLPLRVVKHFYWTSDSCPRPGVVLLTFRDKEICADPRVPWVKMILNKLSQ | none stimulated | 
18 | CCL27: known chemoattractant (protein, UniProt Q9Y4X3 25-112, looked up) C-C motif chemokine 27: FLLPPSTACCTQLYRKPLSDKLLRKVIQVELQEADGDCHLQAFVLHLAQRSICIHPQNPSLSQWFEHQERKLHGTLPKLNFGMLRKMG | none stimulated | 
19 | carboxyl-terminal His8-tagged "pro-form" human chemerin (ligand, Printed with an ellipsis, and with six H although called His8-tagged; also called His8-tagged chemerin isoform) ADPELTEAQRRGLQVALEEFHKHPPVQWAFQETSVESAVDTPFPAGIFVRLEFKLQQTSCRKRDWKKPECKVRPNGRKRKCLACIKLGSEDKVLGRLVHCPIETQVLREAEEHQETQCLRVQRAGEDPHSFYFPGQFAFSKALPRSPHHHHHHHH |  | binding result [6]: binds
20 | CCL17: known chemoattractant (protein, UniProt Q92583 24-94, looked up) C-C motif chemokine 17: ARGTNVGRECCLEYFKGAIPLRKLKTWYQTSEDCSRDAIVFVTVQGRAICSDPNNKRVKNAVKYLQSLERS | none stimulated | 

Source: patent US20100092974A1, “METHODS FOR SCREENING FOR MODULATORS OF CCRL2” (The Board of Trustees of the Leland Stanford Junior …, priority 2008, published 2010)
